Experimental data from publication PMC4838878 (2016).

T1: Olf domain of mouse Latrophilin3 (Lphn3^Olf) (mouse, UniProt Q80TS3-3 199-495)
T1 chain: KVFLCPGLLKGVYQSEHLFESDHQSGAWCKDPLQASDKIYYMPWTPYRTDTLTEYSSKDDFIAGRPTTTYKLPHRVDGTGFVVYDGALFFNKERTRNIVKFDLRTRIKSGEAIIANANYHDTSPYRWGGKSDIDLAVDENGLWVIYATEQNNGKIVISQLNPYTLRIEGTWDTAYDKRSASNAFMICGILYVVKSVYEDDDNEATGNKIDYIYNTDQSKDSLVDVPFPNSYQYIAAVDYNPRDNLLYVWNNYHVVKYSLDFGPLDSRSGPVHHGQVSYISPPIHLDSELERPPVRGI

B1: mouse FLRT2 ectodomain (FLRT2^ecto), ITC construct (domain or fragment)
chain: CPSVCRCDRNFVYCNERSLTSVPLGIPEGVTVLYLHNNQINNAGFPAELHNVQSVHTVYLYGNQLDEFPMNLPKNVRVLHLQENNIQTISRAALAQLLKLEELHLDDNSISTVGVEDGAFREAISLKLLFLSKNHLSSVPVGLPVDLQELRVDENRIAVISDMAFQNLTSLERLIVDGNLLTNKGIAEGTFSHLTKLKEFSIVRNSLSHPPPDLPGTHLIRLYLQDNQINHIPLTAFANLRKLERLDISNNQLRMLTQGVFDHLSNLKQLTARNNPWFCDCSIKWVTEWLKYIPSSLNVRGFMCQGPEQVRGMAVRELNMNLLSCPTTTPGLPVFTPAPSTVSPTTQSPTLSVPSPSRGSVPPAPTPSKLPTIPDWDGRERVTPPISERIQLSIHFVNDTSIQVSWLSLFTVMAYKLTWVKMGHSLVGGIVQERIVSGEKQHLSLVNLEPRSTYRICLVPLDAFNYRTVEDTICSEATTHASYLNNGSNTASSHEQTTSHSMGSPF
B2: FLRT2^ecto+Lphn3^Olf (kept together in the ITC cell) (complex)
chain 1: B1 chain
chain 2: T1 chain
B3: FLRT2^LRR+Lphn3^Lec–Olf (mixed in a 1:2 molar ratio) (complex)
chain 1: ACPSVCRCDRNFVYCNERSLTSVPLGIPEGVTVLYLHNNQINNAGFPAELHNVQSVHTVYLYGNQLDEFPMNLPKNVRVLHLQENNIQTISRAALAQLLKLEELHLDDNSISTVGVEDGAFREAISLKLLFLSKNHLSSVPVGLPVDLQELRVDENRIAVISDMAFQNLTSLERLIVDGNLLTNKGIAEGTFSHLTKLKEFSIVRNSLSHPPPDLPGTHLIRLYLQDNQINHIPLTAFANLRKLERLDISNNQLRMLTQGVFDHLSNLKQLTARNNPWFCDCSIKWVTEWLKYIPSSLNVRGFMCQGPEQVRGMAVRELNMNLLSCPT
chain 2: PIPMAVVRRELSCESYPIELRCPGTDVIMIESANYGRTDDKICDSDPAQMENIRCYLPDAYKIMSQRCNNRTQCAVVAGPDVFPDPCPGTYKYLEVQYECVPYKVEQKVFLCPGLLKGVYQSEHLFESDHQSGAWCKDPLQASDKIYYMPWTPYRTDTLTEYSSKDDFIAGRPTTTYKLPHRVDGTGFVVYDGALFFNKERTRNIVKFDLRTRIKSGEAIIANANYHDTSPYRWGGKSDIDLAVDENGLWVIYATEQNNGKIVISQLNPYTLRIEGTWDTAYDKRSASNAFMICGILYVVKSVYEDDDNEATGNKIDYIYNTDQSKDSLVDVPFPNSYQYIAAVDYNPRDNLLYVWNNYHVVKYSLDFGPLD
B4: rat Unc5D ectodomain (Unc5D^ecto), biotinylated at a C-terminal Avitag (domain or fragment)
chain: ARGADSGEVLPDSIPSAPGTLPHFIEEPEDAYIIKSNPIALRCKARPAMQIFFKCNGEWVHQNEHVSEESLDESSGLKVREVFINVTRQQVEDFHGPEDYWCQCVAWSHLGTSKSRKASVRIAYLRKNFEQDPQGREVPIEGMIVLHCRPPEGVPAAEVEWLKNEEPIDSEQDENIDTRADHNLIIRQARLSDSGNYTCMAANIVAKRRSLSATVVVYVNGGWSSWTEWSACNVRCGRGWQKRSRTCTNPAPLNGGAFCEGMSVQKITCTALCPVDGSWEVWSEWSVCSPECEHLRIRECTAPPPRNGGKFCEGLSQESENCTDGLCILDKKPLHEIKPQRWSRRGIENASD
modifications: biotin on the C-terminal Avitag (enzymatic)

Key:
[1] = molecular target: T2, Unc5D ectodomain (Unc5D^ecto), ITC construct (human (methods; the results say rat), UniProt Q6UXZ4 32-383); assay: ITC
T2 sequence (Q6UXZ4 32-383): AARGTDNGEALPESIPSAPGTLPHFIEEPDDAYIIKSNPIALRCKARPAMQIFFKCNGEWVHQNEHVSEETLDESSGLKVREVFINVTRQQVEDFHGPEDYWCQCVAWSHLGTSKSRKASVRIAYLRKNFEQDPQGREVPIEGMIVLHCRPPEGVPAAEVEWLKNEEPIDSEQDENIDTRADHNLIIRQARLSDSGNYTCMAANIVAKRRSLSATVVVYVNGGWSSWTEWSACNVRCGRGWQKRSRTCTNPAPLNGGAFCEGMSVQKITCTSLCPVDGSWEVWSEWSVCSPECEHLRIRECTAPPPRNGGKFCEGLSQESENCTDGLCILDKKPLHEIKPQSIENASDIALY

[2] = molecular target: T1, Olf domain of mouse Latrophilin3 …; assay: ITC
[3] = molecular target: T2, Unc5D ectodomain (Unc5D^ecto), ITC …; assay: ITC; FLRT2ecto premixed 1:1 with Lphn3Olf
[4] = molecular target: B4; assay: SPR; apparent KD; FLRT2LRR mixed with Lphn3Lec-Olf
[5] = molecular target: FLRT2^LRR+Lphn3^Lec–Olf DDD mutant (mouse, UniProt Q8BLU0 35-362; Q80TS3-3 92-463, D397N | D399T, artificial N-linked glycan at position 397); assay: SPR; apparent KD; FLRT2LRR mixed with Lphn3Lec-Olf DDD mutant

Binder: B1
Kd [1]: 2300 nM
Kd [2]: 9.7 nM

Binder: B2
Kd [3]: 106 nM

Binder: B3
Kd [4]: ~9 nM

Binder: B4
Kd [5]: ~9 nM
